Measurements reported in patent publication US20020031799A1.

Assays:
[1] = target: FVIIIa (activated factor VIII) (UniProt P00451)
[2] = target: FVIIIa (activated factor VIII) (UniProt P00451); experiment: apparent Kd from FXa generation, as FIG. 1, in the absence of hirudin
[3] = target: FVIIIa (activated factor VIII) (UniProt P00451); experiment: apparent Kd from FXa generation, as FIG. 1, in the presence of 100 nM hirudin
[4] = target: FVIIIa (activated factor VIII) (UniProt P00451); experiment: apparent Kd; 0.1 nM FVIIIa titrated with 0-5 nM FIXa, 100 µM PSPC vesicles, 5 mM CaCl2; complex read by the initial rate of FXa generation, quadratic fit

UniProt P00451, sequence (P00451 whole entry, looked up): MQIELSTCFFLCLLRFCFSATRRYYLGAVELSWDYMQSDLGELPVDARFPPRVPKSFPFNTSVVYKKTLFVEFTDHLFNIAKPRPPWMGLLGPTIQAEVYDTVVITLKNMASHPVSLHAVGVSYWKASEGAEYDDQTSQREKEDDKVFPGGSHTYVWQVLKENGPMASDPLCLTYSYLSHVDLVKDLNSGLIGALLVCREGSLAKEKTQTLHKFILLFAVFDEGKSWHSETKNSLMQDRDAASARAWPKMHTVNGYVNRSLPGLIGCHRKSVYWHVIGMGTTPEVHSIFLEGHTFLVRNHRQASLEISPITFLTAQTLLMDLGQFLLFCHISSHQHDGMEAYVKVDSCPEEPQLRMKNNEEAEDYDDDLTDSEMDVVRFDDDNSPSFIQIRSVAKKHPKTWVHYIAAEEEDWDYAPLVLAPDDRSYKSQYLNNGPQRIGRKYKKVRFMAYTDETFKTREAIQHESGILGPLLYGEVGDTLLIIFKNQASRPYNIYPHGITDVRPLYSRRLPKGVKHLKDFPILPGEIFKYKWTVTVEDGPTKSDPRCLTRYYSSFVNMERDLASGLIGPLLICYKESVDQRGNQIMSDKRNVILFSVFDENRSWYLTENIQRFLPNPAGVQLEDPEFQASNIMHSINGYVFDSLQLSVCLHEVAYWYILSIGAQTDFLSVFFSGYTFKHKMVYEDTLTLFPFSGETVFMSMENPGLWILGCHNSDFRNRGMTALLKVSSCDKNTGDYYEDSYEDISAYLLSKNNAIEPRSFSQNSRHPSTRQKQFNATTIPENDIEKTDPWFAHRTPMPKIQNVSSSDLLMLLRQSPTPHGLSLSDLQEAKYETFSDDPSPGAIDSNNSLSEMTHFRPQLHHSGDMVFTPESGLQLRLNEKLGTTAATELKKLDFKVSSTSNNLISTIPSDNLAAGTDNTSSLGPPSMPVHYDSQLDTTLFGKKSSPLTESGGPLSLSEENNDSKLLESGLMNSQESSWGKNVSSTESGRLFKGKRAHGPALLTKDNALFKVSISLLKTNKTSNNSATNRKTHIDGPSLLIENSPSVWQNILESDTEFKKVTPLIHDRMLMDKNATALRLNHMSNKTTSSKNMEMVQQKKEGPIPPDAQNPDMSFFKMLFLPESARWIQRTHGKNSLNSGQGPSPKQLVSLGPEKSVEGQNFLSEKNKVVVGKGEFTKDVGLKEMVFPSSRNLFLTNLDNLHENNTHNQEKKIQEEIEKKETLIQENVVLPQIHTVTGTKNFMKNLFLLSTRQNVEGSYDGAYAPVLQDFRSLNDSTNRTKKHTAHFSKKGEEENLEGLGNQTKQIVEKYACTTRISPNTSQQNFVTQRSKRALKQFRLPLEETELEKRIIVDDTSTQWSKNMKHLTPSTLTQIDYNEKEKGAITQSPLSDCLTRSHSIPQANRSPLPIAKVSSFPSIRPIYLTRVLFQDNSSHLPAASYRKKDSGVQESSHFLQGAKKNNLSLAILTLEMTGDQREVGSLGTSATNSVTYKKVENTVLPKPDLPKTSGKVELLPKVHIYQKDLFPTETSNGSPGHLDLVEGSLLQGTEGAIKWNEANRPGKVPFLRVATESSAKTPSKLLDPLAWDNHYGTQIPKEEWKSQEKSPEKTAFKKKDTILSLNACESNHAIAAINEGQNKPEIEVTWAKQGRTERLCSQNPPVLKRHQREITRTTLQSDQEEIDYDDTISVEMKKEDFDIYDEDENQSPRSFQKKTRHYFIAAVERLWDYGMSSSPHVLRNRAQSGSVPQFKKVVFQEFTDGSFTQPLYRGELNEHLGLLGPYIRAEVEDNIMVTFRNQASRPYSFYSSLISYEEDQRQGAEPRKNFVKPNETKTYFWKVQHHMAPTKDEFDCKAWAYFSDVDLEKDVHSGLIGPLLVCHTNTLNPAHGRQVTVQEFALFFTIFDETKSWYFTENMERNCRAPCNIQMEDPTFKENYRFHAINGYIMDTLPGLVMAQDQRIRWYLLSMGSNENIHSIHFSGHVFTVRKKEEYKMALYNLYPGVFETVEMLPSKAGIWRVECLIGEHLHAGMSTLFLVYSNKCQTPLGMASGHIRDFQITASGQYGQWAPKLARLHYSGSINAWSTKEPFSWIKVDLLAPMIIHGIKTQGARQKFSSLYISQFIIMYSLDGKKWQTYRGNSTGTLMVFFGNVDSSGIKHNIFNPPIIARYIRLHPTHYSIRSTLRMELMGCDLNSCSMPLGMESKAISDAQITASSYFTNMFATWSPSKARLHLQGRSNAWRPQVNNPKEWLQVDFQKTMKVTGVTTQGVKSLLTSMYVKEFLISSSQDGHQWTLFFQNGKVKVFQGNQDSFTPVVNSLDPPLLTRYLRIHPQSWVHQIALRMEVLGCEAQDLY

Substance	maximum rate of FX cleavage (Bmax of FIG. 1) [1]	Bmax, in the absence of hirudin [1] [nM FXa/min]	Bmax, in the presence of 100 nM hirudin [1] [nM FXa/min]	also measured
plasma FIXa (activated purified normal human plasma Factor IX)	1.30 ± 0.10 nM/min			
recombinant wt-FIXa (activated recombinant wild type Factor IX)		1.27±0.12	1.35±0.15	
recombinant wt-FIXa (activated recombinant wild type Factor IX) (from UniProt P00740 47-191; P00740 227-461) (enzyme)				Kd [2]: 0.38 nM; Kd [3]: 0.85 nM
R338A-FIXa (activated Factor IX with alanine at position 338)	3.56±0.15 nM FXa/min	3.39±0.12	3.38±0.19	
plasma FIXa (activated purified normal human plasma Factor IX) (from UniProt P00740 47-191; P00740 227-461) (enzyme)				Kd [4]: 1.01 nM
